Publication PMC8571288

Key:
[1] = target: RPA complex (Homo sapiens) (UniProt P27694+P15927+P35244); assay: smFRET; conditions: smFRET: 25 mM Tris-HCl pH 7.5, 0.5 mM EDTA, 10% glycerol, 50 or 150 mM KCl (temperature not stated), pull-down: 35 mM Tris-HCl pH 7.5, 10% glycerol, 0.01% …
[2] = target: CST complex (CTC1-STN1-TEN1) (Homo sapiens) (UniProt Q2NKJ3+Q9H668+Q86WV5); assay: smFRET; conditions: smFRET: 25 mM Tris-HCl pH 7.5, 0.5 mM EDTA, 10% glycerol, 50 or 150 mM KCl (temperature not stated), pull-down: 35 mM Tris-HCl pH 7.5, 10% glycerol, 0.01% …
Chain of CST complex (CTC1-STN1-TEN1) (Homo sapiens) (Q2NKJ3 whole entry, chain 1 of 3): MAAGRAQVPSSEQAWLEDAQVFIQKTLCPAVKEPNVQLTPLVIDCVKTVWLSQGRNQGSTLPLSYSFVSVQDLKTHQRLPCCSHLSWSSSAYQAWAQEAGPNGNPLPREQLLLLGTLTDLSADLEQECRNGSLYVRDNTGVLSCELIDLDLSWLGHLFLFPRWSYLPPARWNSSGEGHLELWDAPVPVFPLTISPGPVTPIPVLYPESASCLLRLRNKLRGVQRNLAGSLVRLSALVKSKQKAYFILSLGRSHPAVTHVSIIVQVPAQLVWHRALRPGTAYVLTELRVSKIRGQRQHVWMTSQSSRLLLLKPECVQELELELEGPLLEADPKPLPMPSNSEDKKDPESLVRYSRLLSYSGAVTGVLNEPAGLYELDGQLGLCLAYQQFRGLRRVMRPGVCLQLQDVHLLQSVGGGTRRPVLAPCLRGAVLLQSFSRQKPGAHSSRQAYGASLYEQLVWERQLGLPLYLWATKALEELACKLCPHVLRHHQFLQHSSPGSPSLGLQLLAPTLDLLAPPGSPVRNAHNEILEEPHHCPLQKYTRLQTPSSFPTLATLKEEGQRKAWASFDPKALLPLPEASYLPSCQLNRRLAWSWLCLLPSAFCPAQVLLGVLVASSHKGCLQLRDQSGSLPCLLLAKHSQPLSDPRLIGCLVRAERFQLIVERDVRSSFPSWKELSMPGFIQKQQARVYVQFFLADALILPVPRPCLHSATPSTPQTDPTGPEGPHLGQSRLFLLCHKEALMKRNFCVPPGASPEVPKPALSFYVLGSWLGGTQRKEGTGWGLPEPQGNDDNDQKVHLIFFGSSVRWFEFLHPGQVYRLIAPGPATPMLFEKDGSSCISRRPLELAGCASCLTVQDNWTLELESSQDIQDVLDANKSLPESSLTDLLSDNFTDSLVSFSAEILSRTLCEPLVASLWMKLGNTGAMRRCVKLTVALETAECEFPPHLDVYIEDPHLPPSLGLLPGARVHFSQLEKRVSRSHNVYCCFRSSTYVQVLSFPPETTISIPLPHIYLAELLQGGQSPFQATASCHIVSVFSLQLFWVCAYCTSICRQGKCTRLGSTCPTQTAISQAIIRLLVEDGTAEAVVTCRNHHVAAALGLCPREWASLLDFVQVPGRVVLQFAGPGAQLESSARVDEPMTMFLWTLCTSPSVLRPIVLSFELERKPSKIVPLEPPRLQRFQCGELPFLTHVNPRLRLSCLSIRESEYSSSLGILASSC
Chain of CST complex (CTC1-STN1-TEN1) (Homo sapiens) (Q9H668 whole entry, chain 2 of 3): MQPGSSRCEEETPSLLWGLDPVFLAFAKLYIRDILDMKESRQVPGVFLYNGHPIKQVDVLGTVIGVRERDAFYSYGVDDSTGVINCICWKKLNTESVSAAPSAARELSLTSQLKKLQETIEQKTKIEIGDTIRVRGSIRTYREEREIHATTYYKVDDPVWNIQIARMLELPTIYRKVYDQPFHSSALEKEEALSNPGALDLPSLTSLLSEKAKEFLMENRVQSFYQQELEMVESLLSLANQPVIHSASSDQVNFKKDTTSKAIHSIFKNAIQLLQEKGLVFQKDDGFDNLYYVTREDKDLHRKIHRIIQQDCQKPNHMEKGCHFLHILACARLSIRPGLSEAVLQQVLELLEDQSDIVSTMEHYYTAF
Chain of CST complex (CTC1-STN1-TEN1) (Homo sapiens) (Q86WV5 whole entry, chain 3 of 3): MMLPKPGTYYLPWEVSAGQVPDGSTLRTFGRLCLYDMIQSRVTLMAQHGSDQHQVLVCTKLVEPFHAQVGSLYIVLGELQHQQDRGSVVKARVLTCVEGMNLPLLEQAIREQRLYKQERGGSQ

Chain of RPA complex (Homo sapiens) (P27694 whole entry, chain 1 of 3): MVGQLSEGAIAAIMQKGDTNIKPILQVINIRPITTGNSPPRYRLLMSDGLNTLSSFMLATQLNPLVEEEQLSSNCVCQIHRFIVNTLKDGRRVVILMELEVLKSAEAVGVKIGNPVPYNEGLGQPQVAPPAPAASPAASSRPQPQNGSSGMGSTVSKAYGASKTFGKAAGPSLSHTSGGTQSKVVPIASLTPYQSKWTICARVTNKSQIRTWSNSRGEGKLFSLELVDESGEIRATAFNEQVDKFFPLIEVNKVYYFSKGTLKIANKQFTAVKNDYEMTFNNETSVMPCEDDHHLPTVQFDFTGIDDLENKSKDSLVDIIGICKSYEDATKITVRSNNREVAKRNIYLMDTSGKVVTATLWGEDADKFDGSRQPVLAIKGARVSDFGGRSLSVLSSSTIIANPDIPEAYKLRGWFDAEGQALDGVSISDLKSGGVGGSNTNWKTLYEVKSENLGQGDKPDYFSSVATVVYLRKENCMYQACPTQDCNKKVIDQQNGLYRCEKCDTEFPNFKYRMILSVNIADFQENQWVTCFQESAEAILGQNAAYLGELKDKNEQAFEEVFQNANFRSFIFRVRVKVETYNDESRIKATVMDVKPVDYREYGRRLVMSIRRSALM
Chain of RPA complex (Homo sapiens) (P15927 whole entry, chain 2 of 3): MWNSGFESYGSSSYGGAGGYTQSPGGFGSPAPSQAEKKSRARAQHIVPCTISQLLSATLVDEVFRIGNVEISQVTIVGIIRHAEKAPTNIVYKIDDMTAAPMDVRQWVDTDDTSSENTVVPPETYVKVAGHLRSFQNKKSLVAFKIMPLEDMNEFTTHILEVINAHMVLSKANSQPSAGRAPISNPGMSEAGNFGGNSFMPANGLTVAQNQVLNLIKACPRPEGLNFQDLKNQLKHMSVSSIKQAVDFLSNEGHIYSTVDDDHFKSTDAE
Chain of RPA complex (Homo sapiens) (P35244 whole entry, chain 3 of 3): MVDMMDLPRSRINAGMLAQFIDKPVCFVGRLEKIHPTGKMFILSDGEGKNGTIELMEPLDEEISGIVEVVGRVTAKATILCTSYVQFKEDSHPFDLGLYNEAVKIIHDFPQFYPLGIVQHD

“ACGCTGCCGAATTCTACCAGTGCCTTGCTAGGACATCTTTGCCCACCTGCAGGTTCACCC / GGGTGAACCTGCAGGTGGGCAAAGA [35-nt ssDNA overhang (Oligo 5+6)]” showed a Kd ([1]; 50 mM KCl, Hill slope 3.14) of 0.12 nM, a Kd ([1]; 150 mM KCl, Hill slope 2.83) of 0.11 nM and a Kd ([2]; 50 mM KCl, Hill slope 2.74) of 0.12 nM. The Kd ([2]; 150 mM KCl, Hill slope 1.4) was 0.29 nM.
